Test results published in patent US20230183354A1 (IMMIOS HOLDING B V, published 2023).

Legend:
murine CD103 = target: T1, murine CD103 (mouse, UniProt Q60677 20-1167); test: flow cytometry on mouse spleen and thymus cells
T1 construct: whole, on cells; also called murine CD103+ T cells; mouse CD103
T1 sequence (looked up): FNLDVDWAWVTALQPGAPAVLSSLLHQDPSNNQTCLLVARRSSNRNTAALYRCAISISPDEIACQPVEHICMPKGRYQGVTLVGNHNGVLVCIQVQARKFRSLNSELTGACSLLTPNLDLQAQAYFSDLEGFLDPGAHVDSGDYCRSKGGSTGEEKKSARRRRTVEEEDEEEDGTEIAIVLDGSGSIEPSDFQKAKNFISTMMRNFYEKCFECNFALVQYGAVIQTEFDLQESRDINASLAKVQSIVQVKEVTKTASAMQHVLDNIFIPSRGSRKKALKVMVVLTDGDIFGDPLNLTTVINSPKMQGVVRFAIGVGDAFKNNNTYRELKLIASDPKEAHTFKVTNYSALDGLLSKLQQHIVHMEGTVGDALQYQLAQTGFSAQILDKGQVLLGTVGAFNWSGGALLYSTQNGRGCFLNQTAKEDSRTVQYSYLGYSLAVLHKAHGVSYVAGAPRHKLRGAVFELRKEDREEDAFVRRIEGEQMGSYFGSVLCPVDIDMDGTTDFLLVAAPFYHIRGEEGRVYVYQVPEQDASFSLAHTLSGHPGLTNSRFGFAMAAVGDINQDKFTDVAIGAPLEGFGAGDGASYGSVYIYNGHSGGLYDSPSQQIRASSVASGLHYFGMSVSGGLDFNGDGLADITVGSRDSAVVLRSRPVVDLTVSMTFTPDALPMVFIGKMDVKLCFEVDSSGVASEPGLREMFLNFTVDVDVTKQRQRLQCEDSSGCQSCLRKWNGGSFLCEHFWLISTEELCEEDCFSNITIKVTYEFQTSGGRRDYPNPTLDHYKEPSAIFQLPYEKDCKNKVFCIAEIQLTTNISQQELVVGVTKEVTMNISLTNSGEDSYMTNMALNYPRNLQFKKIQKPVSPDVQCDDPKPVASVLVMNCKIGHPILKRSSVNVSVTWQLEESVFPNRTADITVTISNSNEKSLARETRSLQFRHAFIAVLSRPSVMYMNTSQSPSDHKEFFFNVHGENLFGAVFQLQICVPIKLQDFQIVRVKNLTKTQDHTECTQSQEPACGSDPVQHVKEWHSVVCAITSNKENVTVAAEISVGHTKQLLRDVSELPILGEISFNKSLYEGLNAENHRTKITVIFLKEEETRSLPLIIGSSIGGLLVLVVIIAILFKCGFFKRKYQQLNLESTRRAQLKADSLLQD
Description: Additional aliquots were stained with relevant isotype controls or as fluorescence minus one controls (“FMO” controls are cells stained with all the fluorophores minus one fluorophore; the relevant isotype controls contain either a directly labeled unspecific isotype antibody or an unspecific isotype antibody combined with secondary detection reagent). Percentage binding of fluorescently labeled mAbs was determined using flow cytometry. Maximum binding was set at 100%. […] Data analysis was performed with FlowJo v10 (Tree Star) and surface receptor levels were expressed as mean fluorescent intensity (MFI).

[1] = target: T2, human CD103 (integrin Alpha-E) / human integrin Beta-7 heterodimer on cells (human, UniProt P38570 19-1179; P26010 20-798); test: cell ELISA on CHO.K1-hCD103/beta7 cells, OD450-620, upper left panel
T2 construct: The same id is used for native CD103 on human CD103+CD8+ T cells (tumor digests, TGF-beta induced T cells); the assay field tells which cells; also called hCD103/hBeta7; CHO.K1-hCD103/hBeta7

[2] = target: T2, human CD103 (integrin Alpha-E) / human …; test: flow cytometry competition on CD103+CD8+ T cells; pre-incubation with unlabeled 01A; table n=1
Description: (§1) Percentage binding of fluorescently labeled mAbs was determined using flow cytometry. Maximum binding was set at 100%.
(§2) Percentage binding of fluorescently labeled mAbs was determined using flow cytometry. Maximum binding was set at 100%

[3] = target: T2, human CD103 (integrin Alpha-E) / human …; test: flow cytometry competition on CD103+CD8+ T cells; pre-incubation with unlabeled 03A; table n=1
Description: as §1, §2

[4] = target: T2, human CD103 (integrin Alpha-E) / human …; test: flow cytometry competition on CD103+CD8+ T cells; pre-incubation with unlabeled 05A; table n=1
Description: as §1, §2

[5] = target: T2, human CD103 (integrin Alpha-E) / human …; test: flow cytometry competition on CD103+CD8+ T cells; pre-incubation with unlabeled 05A; table n=2
Description: as §1, §2

[6] = target: T2, human CD103 (integrin Alpha-E) / human …; test: flow cytometry competition on CD103+CD8+ T cells; pre-incubation with unlabeled 06A; table n=2
Description: as §1, §2

[7] = target: T2, human CD103 (integrin Alpha-E) / human …; test: flow cytometry competition on CD103+CD8+ T cells; pre-incubation with unlabeled 07A; table n=2
Description: as §1, §2

[8] = target: T2, human CD103 (integrin Alpha-E) / human …; test: flow cytometry competition on CD103+CD8+ T cells; pre-incubation with unlabeled IgG (f2); table n=2
Description: as §1, §2

[9] = target: T2, human CD103 (integrin Alpha-E) / human …; test: flow cytometry competition on CD103+CD8+ T cells; pre-incubation with unlabeled BERACT; table n=1
Description: as §1, §2

[10] = target: T2, human CD103 (integrin Alpha-E) / human …; test: flow cytometry competition on CD103+CD8+ T cells; pre-incubation with unlabeled BERACT; table n=2
Description: as §1, §2

T2 sequence (P38570 19-1179 limits assumed, chain 1 of 2): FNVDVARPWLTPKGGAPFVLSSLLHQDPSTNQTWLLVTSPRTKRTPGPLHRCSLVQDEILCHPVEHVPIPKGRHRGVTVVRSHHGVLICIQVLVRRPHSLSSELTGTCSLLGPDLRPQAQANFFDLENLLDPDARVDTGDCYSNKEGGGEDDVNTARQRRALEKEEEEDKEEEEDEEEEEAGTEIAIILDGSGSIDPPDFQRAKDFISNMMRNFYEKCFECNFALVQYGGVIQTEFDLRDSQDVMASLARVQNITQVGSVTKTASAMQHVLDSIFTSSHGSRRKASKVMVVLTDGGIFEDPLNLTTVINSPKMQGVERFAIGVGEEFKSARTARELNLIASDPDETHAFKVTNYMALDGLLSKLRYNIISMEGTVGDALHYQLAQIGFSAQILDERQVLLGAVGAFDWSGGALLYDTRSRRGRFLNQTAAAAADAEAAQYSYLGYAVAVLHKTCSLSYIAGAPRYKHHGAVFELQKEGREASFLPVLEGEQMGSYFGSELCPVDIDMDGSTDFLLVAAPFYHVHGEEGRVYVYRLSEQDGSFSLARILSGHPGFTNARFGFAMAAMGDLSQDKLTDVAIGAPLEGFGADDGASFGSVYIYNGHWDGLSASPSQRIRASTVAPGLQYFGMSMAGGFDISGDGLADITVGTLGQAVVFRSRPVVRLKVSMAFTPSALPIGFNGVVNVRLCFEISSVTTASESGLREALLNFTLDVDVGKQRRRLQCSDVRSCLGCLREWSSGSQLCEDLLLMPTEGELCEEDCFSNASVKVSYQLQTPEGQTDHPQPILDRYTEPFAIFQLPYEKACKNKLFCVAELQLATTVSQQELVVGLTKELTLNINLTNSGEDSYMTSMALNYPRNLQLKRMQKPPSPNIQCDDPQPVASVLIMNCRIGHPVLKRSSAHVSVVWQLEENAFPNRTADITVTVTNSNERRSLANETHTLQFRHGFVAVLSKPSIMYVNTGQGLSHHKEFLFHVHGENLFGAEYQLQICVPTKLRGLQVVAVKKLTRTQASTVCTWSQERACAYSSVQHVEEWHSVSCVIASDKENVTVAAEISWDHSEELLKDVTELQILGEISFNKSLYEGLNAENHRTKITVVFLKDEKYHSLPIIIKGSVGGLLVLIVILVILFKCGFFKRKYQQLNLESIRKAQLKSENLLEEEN
T2 sequence (P26010 20-798 limits assumed, chain 2 of 2): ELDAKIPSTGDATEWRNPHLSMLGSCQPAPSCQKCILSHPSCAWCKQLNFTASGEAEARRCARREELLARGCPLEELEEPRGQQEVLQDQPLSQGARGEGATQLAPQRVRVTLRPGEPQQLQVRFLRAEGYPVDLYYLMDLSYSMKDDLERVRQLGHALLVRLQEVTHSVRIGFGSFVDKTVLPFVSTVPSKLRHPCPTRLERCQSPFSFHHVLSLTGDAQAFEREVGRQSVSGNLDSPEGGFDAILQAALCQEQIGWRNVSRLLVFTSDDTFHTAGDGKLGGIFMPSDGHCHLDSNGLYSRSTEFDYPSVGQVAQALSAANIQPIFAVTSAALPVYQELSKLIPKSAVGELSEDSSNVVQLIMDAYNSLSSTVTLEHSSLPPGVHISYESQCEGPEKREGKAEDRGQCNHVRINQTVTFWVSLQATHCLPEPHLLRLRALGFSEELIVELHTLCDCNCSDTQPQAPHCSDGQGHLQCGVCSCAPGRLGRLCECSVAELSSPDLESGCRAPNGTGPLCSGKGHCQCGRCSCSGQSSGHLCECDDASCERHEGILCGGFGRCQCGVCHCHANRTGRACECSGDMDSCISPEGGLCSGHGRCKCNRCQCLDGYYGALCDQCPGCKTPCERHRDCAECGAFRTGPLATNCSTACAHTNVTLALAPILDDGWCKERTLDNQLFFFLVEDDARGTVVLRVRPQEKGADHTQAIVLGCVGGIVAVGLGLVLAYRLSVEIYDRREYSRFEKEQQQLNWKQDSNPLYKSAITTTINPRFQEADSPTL

Row | Binder | binding result (murine CD103) | EC50 (read off the curve) [1] | % binding of the fluorescently labeled mAb (IgG pre-incubation = 100) [2] | % binding of the fluorescently labeled mAb (IgG pre-incubation = 100) [3] | % binding of the fluorescently labeled mAb (IgG pre-incubation = 100) [4] | % binding of the fluorescently labeled mAb (IgG pre-incubation = 100) [5] | % binding of the fluorescently labeled mAb (IgG pre-incubation = 100) [6] | % binding of the fluorescently labeled mAb (IgG pre-incubation = 100) [7] | % binding of the fluorescently labeled mAb (IgG pre-incubation = 100) [8] | % binding of the fluorescently labeled mAb (IgG pre-incubation = 100) [9] | % binding of the fluorescently labeled mAb (IgG pre-incubation = 100) [10]
1 | hCD103.05A (antibody, mouse IgG1, V domains shown, Also tested labelled with AF647, conjugated with Df and labelled with 89Zr; these are written under this molecule; also called clone 05A; hCD103.05 mAb) VH: EVQLQQSGPELEKPGASAKISCKASGYSFTGYNMNWVKQSNGKSLEWIGNIDPYYGGTSYNQKFKGKATLTVDKSSSTAYMQLKSLTSEDSAVYYCARSFYGYDAGSPYNYAMDYWGQGTPVTVSP VL: DIVMTQSHKFMSTSVGDRVSITCKASQDVGTFVAWYQQKPGQSPKLLIYWASTRHTGVPDRFTGSGSGTDFTLTISNVQSEDLADYFCHQYSSYPYTFGGGTQLEIK | no binding | ~0.02 µg/mL | 2.6% | 100% | 13.1% | 14.2% | 87.4% | 56.9% | 100% | 4.2% | 4.9%
2 | hCD103.06A (antibody, mouse IgG1, V domains shown, also called clone 06A; hCD103.06 mAb) VH: QVQLQQPGSELVRPGASVKLSCKASGYTFTSYWMHWVKQRHGQGLEWIGNIYPGSGSTNYDEKFKSKGTLTVDTSSSTAYMHLSSLTSEDSAVYYCTRGVYDNPYYFDYWGQGTTLTVSS VL: DIQMTQSSSNLSVSLGGRVTITCKASDHINNWLAWYQQKPGNAPRVLISGATSLETGVPSRFSGSGSGKDYTLSITSLQTEDVATYYCQQYWSIPLTFGAGTKLELK | no binding | ~0.02 µg/mL | 96% | 101% | 101% | 102% | 18.9% | 97% | 100% | 84.9% | 109%
3 | hCD103.07A (antibody, mouse IgG1, V domains shown, also called clone 07A) VH: EVQLQESGPSLVKPSQTLSLTCSVTGDSITSGYWNWIRKFPGNKLEYMGYITYSGSTYYNPSLKSRISITRDTSKNQYYLQLNSVTTEDTATYYCARNYYGSSSMDYWGQGTSVTVSS VL: DIVMTQSQKFMSTSVADRVSVTCKASQNVGSDVAWYQQKPGQSPKSLIYSASYRYSGVPDRFTGSGSGTDFTLTISNVQSEDLAEYFCQQYNSYPSTFGGGTKLEIK | no binding |  | 0.7% | 94.4% | 7.9% | 11.4% | 81.6% | 29.8% | 100% | 0.7% | 1%
4 | hCD103.01A (antibody, V domains shown, Also tested labelled with AF647, conjugated with Df and labelled with 89Zr; these are written under this molecule; also called clone 01A; hCD103.01 mAb) VH: EVQLQESGPSLVKPSQTLSLTCSVTGDSITSGYWNWIRKFPGNKLEYMGYITYSGSTYYNPSLKSRISITRDTSKNQYYLQLNSVTTEDTATYYCTRHYYGSDAMDYWGQGTSVTVSS VL: DIVMTQSHKFMSTSVGDRVSITCKASQDVSIAVAWYQQRPGQSPKLLIYSASYRYTGVPDRFTGSGSGTDFTFTISSVQAEDLAVYYCQQHYSTPWTFGGGTKLEIK | no binding | ~0.02 µg/mL | 1.5% | 96.7% | 71.8% | 77.4% | 90.9% | 26.6% | 100% | 2.5% | 4%
